Measurements: PMC9226498, “Structural basis for interaction between CLAMP and MSL2 proteins involved in the specific recruitment of the dosage compensation complex in Drosophila” (Nucleic Acids Research, 2022)

Biological target: T1, CLAMP^40–153 (Drosophila melanogaster, UniProt Q9V9N4 40-153)
T1 construct: Tags and their cleavage are told only in the Supplementary Information; source: E. coli BL21 (DE3), purified (IMAC, anion-exchange chromatography)
T1 sequence (looked up): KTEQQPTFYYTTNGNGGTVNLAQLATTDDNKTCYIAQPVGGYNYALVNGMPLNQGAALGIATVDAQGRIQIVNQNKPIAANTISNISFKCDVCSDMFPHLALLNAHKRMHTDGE
Experiment: NMR titration; stable isotope-labeled MSL2 618–655 titrated with unlabeled CLAMP 40–153 (or CLAMP 41–153 L139A/K146E); chemical shift perturbation, fast exchange; 25°C
Details: both partners purified

B1: MSL2^618–655 (domain or fragment, Drosophila melanogaster, UniProt P50534 618-655, looked up)
chain: ISLVPLNNLQQSQHPLVLVQNEKGEYQGFNIFQGSKPL
notes: Unlabelled or 13C,15N-labelled for NMR; Tags and their cleavage are told only in the Supplementary Information; also called MSL2 peptide; source: E. coli BL21 (DE3), purified (IMAC, anion-exchange chromatography)
A Kd of 200 ± 100 µM was found for B1 in this work.
